Data on three molecules can be found in publication PMC12529457, “Selection of DNA Aptamers Against Parathyroid Hormone for Electrochemical Impedimetric Biosensor System Development”.

Holding throughout (assay): fluorescent magnetic bead binding assay; peptide on beads, aptamer 100-2500 nM; Bead assay: SELEX conditions (PBS, room temperature), 30 min incubation then wash, pH not stated; EIS: 30 min at ambient temperature, PBS wash, read in 0.1 M KCl with 5 mM ferri/ferrocyanide
Conditions in all cases: protein: commercial; tags: none stated; amine-coupled to carboxy magnetic beads

One data set addresses T1, PTH (1-34) (UniProt P01270 32-65).
T1 chain: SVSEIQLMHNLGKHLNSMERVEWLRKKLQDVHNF

The target of the next data set is T2, PTH (53-84) (UniProt P01270 84-115).
T2 chain: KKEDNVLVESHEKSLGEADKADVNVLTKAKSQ

A further data set addresses T3, PTH (1-84) (UniProt P01270 32-115).
T3 sequence: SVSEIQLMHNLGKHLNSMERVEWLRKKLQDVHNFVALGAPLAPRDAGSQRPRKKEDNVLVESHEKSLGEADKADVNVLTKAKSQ

With GCGTGGTATGTGCATCGTCAGTGAGGGGTTGGCGGCCGAG (ssDNA) [Aptamer-PTH (1-34)], the Kd with PTH (1-34) turned out to be 516 ± 41 nM.
In the case of GCGTGGTATGTGCGTCGTCGCTAATGAATTTGTAGCCTAC (ssDNA) [Aptamer-PTH (53-84)], in the data set with PTH (53-84), the Kd came to 220 ± 57.5 nM.
In turn, TATTGGTATGTGCGTCGTCGGTGACCTCTTTCACGGCCGG (ssDNA) [Aptamer-PTH (1-84)] registered a Kd with PTH (1-84) of 340 ± 23.3 nM.
